Source: the supplement of paper PMC10724198
± gives the standard deviation of the averaged measurements.

System: Saccharomyces cerevisiae
Assay: protein stability index of tFT-peptide fusion (C-terminal peptide) (PSI (0-1 scale)); higher = more stable (slower turnover)
Conditions: temperature: 30 C
Description: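 MPS profiling in S. cerevisiae of the yeast C-terminome library: the last 12 aa of each annotated ORF are fused to the C-terminus of a sfGFP-mCherry timer, after a GGGS linker. Cells are FACS-sorted into 8 mCherry/sfGFP bins and deep-sequenced. PSI runs from 0 (unstable) to 1 (stable); wild type and das1Δ backgrounds, two technical replicates each.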

[1] = genetic background: das1 deletion

| Sequence | protein stability index [1] | protein stability index (genetic background: wild type) |
| --- | --- | --- |
| TSGFCSLETSAE [YER023C-A C-terminal 12 aa] | 0.697 ± 0.0079 | 0.735 ± 0.057 |
| EKVNEILRSTEK [GCD14 C-terminal 12 aa] | 0.69 ± 0.0098 | 0.717 ± 0.0097 |
| QTSAKISIRLLY [SER3 C-terminal 12 aa] | 0.6607 ± 0.00096 | 0.582 ± 0.0062 |
| SLPRQAGGRKKK [GLC7 C-terminal 12 aa] | 0.715 ± 0.033 | 0.668 ± 0.052 |
| CERCKSELQSVH [SET6 C-terminal 12 aa] | 0.686 ± 0.0084 | 0.663 ± 0.03 |
| GSSVPLDLTLFT [VRP1 C-terminal 12 aa] | 0.728 ± 0.012 | 0.714 ± 0.0093 |
| GAIYVLQWANPT [YBR287W C-terminal 12 aa] | 0.667 ± 0.025 | 0.662 ± 0.061 |
| LLYPVKSESSTV [PDR16 C-terminal 12 aa] | 0.68 ± 0.013 | 0.676 ± 0.01 |
| ESLSNEAALKAN [RPO31 C-terminal 12 aa] | 0.676 ± 0.027 | 0.397 ± 0.017 |
| KESPANDQASNE [MLP2 C-terminal 12 aa] | 0.688 ± 0.0091 | 0.677 ± 0.032 |
| GKQLLSPMGRAF [TKL2 C-terminal 12 aa] | 0.679 ± 0.022 | 0.6529 ± 0.0014 |
| NAIKNWTGVNVK [MIC26 C-terminal 12 aa] | 0.7 ± 0.0014 | 0.695 ± 0.0088 |
| KKEKISKYVSKS [OPI11 C-terminal 12 aa] | 0.725 ± 0.0098 | 0.683 ± 0.035 |
| LLSLPSSTLTKS [YIL068W-A C-terminal 12 aa] | 0.703 ± 0.025 | 0.702 ± 0.0086 |
| TLEDEALQRNSK [JNM1 C-terminal 12 aa] | 0.722 ± 0.0093 | 0.686 ± 0.017 |
| MFKFNVHKKSKV [TAD2 C-terminal 12 aa] | 0.72 ± 0.015 | 0.758 ± 0.048 |
| NGKTIKDATDNK [COX19 C-terminal 12 aa] | 0.669 ± 0.015 | 0.6957 ± 0.0059 |
| SLQVILEFVSQH [SXM1 C-terminal 12 aa] | 0.654 ± 0.029 | 0.6248 ± 0.0024 |
| GLRYDMVHKLIS [SLH1 C-terminal 12 aa] | 0.688 ± 0.025 | 0.212 ± 0.028 |
| DSMRGNSRNNMF [EBS1 C-terminal 12 aa] | 0.7083 ± 0.0062 | 0.717 ± 0.021 |

| Sequence | protein stability index [1] | protein stability index (genetic background: wild type) |
| --- | --- | --- |
| RCGALSEKLVFL [FMT1 C-terminal 12 aa] | 0.694 ± 0.011 | 0.697 ± 0.013 |
| VPLKEELFPSSS [COX6 C-terminal 12 aa] | 0.718 ± 0.025 | 0.674 ± 0.0019 |
| MYGLGIRDCCIM [RCY1 C-terminal 12 aa] | 0.7921 ± 0.0075 | 0.776 ± 0.088 |
| VDDSDGDETMQI [TDA1 C-terminal 12 aa] | 0.70725 ± 0.00053 | 0.7369 ± 0.0011 |
| VIKCFTSSDMTS [NAG1 C-terminal 12 aa] | 0.701 ± 0.026 | 0.683 ± 0.053 |
| KNGYGNSNASWW [DBP1 C-terminal 12 aa] | 0.717 ± 0.031 | 0.691 ± 0.027 |
| DLAYQYVRALEL [SRB2 C-terminal 12 aa] | 0.683 ± 0.013 | 0.673 ± 0.0094 |
| KSEVERVYKENS [FAA3 C-terminal 12 aa] | 0.718 ± 0.0093 | 0.6803 ± 0.0059 |
| TPENNHLKWLIK [UGX2 C-terminal 12 aa] | 0.716 ± 0.024 | 0.685 ± 0.035 |
| EEAFGKVQTKTF [SOL3 C-terminal 12 aa] | 0.7098 ± 0.0052 | 0.7564 ± 0.0044 |
| TELRHKRTGGKH [ILV2 C-terminal 12 aa] | 0.691 ± 0.0092 | 0.7268 ± 0.002 |
| RNQNSDRLNFQP [YBR138C C-terminal 12 aa] | 0.705 ± 0.0061 | 0.675 ± 0.016 |
| FRRRLGDRFKKD [MRX7 C-terminal 12 aa] | 0.6895 ± 0.0044 | 0.695 ± 0.017 |
| MLCTLTGYQNND [NUP192 C-terminal 12 aa] | 0.7282 ± 0.0051 | 0.685 ± 0.017 |
| TLNVSNISHYSL [GAL80 C-terminal 12 aa] | 0.7033 ± 0.0016 | 0.704 ± 0.0075 |
| KKEPGANCCIIL [RHO2 C-terminal 12 aa] | 0.743 ± 0.02 | 0.72 ± 0.021 |
| IGISPSQNKWEK [REX3 C-terminal 12 aa] | 0.728 ± 0.02 | 0.7285 ± 0.0071 |
| TPQEILQRFQKQ [EAF1 C-terminal 12 aa] | 0.6812 ± 0.0053 | 0.732 ± 0.029 |
| DRKRRKLLWYQA [MRPL20 C-terminal 12 aa] | 0.718 ± 0.045 | 0.2489 ± 0.00046 |
| ARNIWRLFLQKI [YLR126C C-terminal 12 aa] | 0.705 ± 0.058 | 0.168 ± 0.0098 |
